Measured values: the supplement of paper PMC9170038

Tested on: MS2 coat protein
Assay: apparent KD of MS2 coat protein; designed switch direction (-1 OFF switch, 1 ON switch): 1; higher = weaker reporter binding
Summary of the method: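 For each design, the apparent KD is the median over clusters of curves fitted to normalised cluster fluorescence. Clusters held RNA switches with common flanks, transcribed on Illumina chips by stalled E. coli RNA polymerase. These were titrated with SNAP-549-labelled MS2 coat protein, doubling from 0.7 or 1.5 nM to 3 µM, without input, with 200 uM small-molecule ligand, or with an oligonucleotide input.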

[1] = input ligand: microRNA oligo, concentration not stated

Sequence	apparent KD of MS2 coat protein (input ligand: FMN 200 uM)	apparent KD of MS2 coat protein [1]	apparent KD of MS2 coat protein (input ligand: none)	apparent KD of MS2 coat protein (Eterna round: R95, input ligand: FMN 200 uM)	apparent KD of MS2 coat protein (Eterna round: R95, input ligand: microRNA oligo, concentration not stated)	apparent KD of MS2 coat protein (Eterna round: R95, input ligand: none)
UGUUAGUAGACAGGAUAUUGAAUGUUAAGUAUUAACAUGAGGAUCACCCAUGUAUUUGAUUGGUACAAGAAGGGUCAAGUUUGU [JR_SSNG2_Sub013] (Eterna round: R96, puzzle: Same State NG 2)	487 nM	191 nM	320 nM	–	–	–
AGAUCAUGACGAGGAUAUGGUACAUGAGGAUCACCCAUGUAUGUACCAUAGCAACAGCUAGGAAACCAGAAGGCGUCGUGGUCA [jandersonlee JLSSNG2 1.18 Native F5 + F7] (Eterna round: R96, puzzle: Same State NG 2)	13.6 nM	15.6 nM	26.6 nM	–	–	–
GCUCGGAUGAUGGCCCACAUGAGGAUCACCCAUGUGCGUGGGCAGGAUAUCUAGAUUAAGGAUGUAGAGAAGGGCCUACCGAGC [SameState NG3 #33] (Eterna round: R96, puzzle: Same State NG 3)	543 nM	140 nM	179 nM	–	–	–
CUGCUCGUGUGAGGAUAUGCCGCCGUUUCGGCUGCAGAAGGUGCUACGUUACAUGAGGAUCACCCAUGUCUCUGUUGUUUCGUU [salish99_SSNG1_r04_947] (Eterna round: R96, puzzle: Same State NG 1)	20.2 nM	19 nM	22.8 nM	–	–	–
AUAACACCGGCAGGAUAUGGGAAAGGAAGUGUACCAGAAGGGCCGGAACGGCGAUGGACAUGAGGAUCACCCAUGUCUUAGCCU [PowerStrip SSNG 1.24] (Eterna round: R96, puzzle: Same State NG 1)	13.7 nM	11.6 nM	17.3 nM	–	–	–
AAUUUAAUACAUGAGGAUCACCCAUGUAAAUUAAUUAAGAUCUAGGAUAUCAGCUCGAUUAGAGCUGAGAAGGAGAUCACAUGU [SSNG3/19-B2] (Eterna round: R96, puzzle: Same State NG 3)	–	12 nM	–	–	–	–
CGUCGUUUGAUAGGAUAUCGCUAUACAUGAGGAUCACCCAUGUUUACCACGCUGGUUUUUCAUACCGAGAAGGAUUCUGAUGUU [salish99_SSNG02_r04_016] (Eterna round: R96, puzzle: Same State NG 2)	49.8 nM	42.4 nM	44.1 nM	–	–	–
AGUCCAGCCUGAGCUGGACAAAAGCAUGUACAUGAGGAUCACCCAUGUCAUGUACAAGCUUUUUGCUCAUCUUAAAA [Mat - hsa-mir-208a - Mod of JL - D11] (puzzle: Sensor for hsa-mir-208a)	–	–	–	624 nM	16.4 nM	922 nM
UGGCUGAGUCGAGGAUAUUAUGGAUCCUCUAAUACAUGAGGAUCACCCAUGUAAUUAAUUAUACAUGAGAAGGUGACUCAGCCA [SSNG2/12-B2] (Eterna round: R96, puzzle: Same State NG 2)	463 nM	52.3 nM	342 nM	–	–	–
AGUAGUGUAACAUGAGGAUCACCCAUGUAAGUAGAUGUAACCUAGGAUAUGGAUGAUAUGUUAGUCCAGAAGGAGGAUUGUUUA [JR_SSNG3_Sub038] (Eterna round: R96, puzzle: Same State NG 3)	20.6 nM	36.7 nM	34.8 nM	–	–	–
AAGCUCGUGUGAGGAUAUGCCGCCGUUUCGGCUGCAGAAGGUGCUACGUUACAUGAGGAUCACCCAUGUCUCUGUUGUUUCGUC [salish99_SSNG1_r04_954] (Eterna round: R96, puzzle: Same State NG 1)	–	22.1 nM	–	–	–	–
GAGUGGUAGAGAGGAUAUGCAUUGUUAUUCACUGUAGAAGGUUUUAACAUGAGGAUCACCCAUGUAGGACUAUUCCUGUGUUUU [Parity 62 - Jieux - Same State NG 1] (Eterna round: R96, puzzle: Same State NG 1)	16.3 nM	13.3 nM	18.4 nM	–	–	–
